Tested on: peptide library, one residue held at a place counted from the S/T acceptor
Experiment: relative phosphorylation of the sub-library (ratio to the mean residue at this position); human; higher = residue favoured
Procedure, shortened: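 Each biotinylated degenerate peptide sub-library fixed one residue at one position around a central Ser/Thr and was incubated with a purified recombinant kinase, a human or orthologue construct, in 384-well plates. The 90 min reactions, under kinase-specific conditions, contained 50 μM peptide and 50 μM ATP spiked with γ-32P-ATP. Phosphorylation was read by phosphorimaging spots on streptavidin membranes and quantifying them by densitometry. Relative sub-library phosphorylation expresses each value as a ratio to the mean residue at that position.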

Sequence of MAP4K5, construct: Full length (Q9Y4K4 whole entry, looked up): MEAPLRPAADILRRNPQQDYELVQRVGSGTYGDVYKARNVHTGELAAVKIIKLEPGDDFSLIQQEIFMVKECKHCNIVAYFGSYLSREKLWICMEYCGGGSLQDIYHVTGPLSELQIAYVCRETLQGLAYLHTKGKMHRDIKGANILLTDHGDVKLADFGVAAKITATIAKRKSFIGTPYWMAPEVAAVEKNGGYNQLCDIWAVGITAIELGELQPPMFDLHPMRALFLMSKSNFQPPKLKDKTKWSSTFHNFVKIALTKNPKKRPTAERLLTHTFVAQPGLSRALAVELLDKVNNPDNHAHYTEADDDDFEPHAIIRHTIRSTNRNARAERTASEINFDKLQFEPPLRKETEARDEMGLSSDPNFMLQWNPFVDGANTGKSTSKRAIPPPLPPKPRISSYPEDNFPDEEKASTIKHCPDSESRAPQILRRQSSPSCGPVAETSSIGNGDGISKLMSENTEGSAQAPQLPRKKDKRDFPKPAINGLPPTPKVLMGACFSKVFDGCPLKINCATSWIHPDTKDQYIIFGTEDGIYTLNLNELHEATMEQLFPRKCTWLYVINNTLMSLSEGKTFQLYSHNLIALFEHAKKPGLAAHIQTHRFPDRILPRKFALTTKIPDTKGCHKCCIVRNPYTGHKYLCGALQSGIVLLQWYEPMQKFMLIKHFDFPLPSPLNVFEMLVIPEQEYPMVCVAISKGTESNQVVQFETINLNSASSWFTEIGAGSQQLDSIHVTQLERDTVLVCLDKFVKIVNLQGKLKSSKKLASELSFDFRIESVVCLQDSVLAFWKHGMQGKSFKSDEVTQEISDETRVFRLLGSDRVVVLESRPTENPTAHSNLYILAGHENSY
Sequence of MAP3K10, construct: aa1-449 (Q02779 1-449, looked up): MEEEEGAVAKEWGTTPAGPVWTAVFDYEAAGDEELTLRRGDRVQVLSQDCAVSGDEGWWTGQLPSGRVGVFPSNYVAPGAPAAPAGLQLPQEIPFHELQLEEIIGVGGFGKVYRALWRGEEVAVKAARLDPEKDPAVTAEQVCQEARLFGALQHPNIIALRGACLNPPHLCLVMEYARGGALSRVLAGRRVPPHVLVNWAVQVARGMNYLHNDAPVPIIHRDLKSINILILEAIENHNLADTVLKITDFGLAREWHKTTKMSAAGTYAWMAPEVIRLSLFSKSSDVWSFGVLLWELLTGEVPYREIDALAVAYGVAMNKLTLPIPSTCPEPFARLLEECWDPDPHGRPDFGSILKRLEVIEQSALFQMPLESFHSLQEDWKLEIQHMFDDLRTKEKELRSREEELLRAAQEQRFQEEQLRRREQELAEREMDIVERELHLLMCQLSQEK
Sequence of MAP4K3, construct: aa1-380 (Q8IVH8 1-380, looked up): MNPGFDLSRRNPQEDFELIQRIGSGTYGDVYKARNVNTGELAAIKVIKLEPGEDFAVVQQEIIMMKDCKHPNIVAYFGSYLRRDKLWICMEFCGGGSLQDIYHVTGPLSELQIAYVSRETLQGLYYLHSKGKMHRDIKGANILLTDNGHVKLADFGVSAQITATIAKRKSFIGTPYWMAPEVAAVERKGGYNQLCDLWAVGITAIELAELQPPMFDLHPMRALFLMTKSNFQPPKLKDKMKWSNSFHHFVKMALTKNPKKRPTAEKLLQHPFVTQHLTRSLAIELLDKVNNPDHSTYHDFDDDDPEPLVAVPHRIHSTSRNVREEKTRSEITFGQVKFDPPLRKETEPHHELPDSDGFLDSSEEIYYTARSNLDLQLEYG

MAP3K10, construct: aa1-449 (from UniProt Q02779)
relative phosphorylation
Conditions | at +1 | at +2 | at +3 | at +4 | at -1 | at -2 | at -3 | at -4 | at -5
A fixed | 0.988 | 0.921 | 1.06 | 1.24 | 0.881 | 0.969 | 1.12 | 1.23 | 1.48
D fixed | 0.28 | 0.398 | 0.506 | 0.72 | 0.775 | 0.594 | 0.888 | 1.11 | 1.11
E fixed | 0.404 | 0.392 | 0.439 | 0.573 | 0.65 | 0.584 | 0.827 | 0.909 | 0.764
F fixed | 1.53 | 0.602 | 1.19 | 0.779 | 1.05 | 1.44 | 0.935 | 0.693 | 0.878
G fixed | 0.999 | 0.749 | 1.42 | 1.43 | 0.603 | 0.911 | 1.28 | 1.43 | 1.39
H fixed | 1.65 | 2.11 | 1.34 | 1.07 | 1.39 | 1.2 | 1.19 | 1.11 | 1.17
I fixed | 0.774 | 0.445 | 0.773 | 0.705 | 0.65 | 0.505 | 0.484 | 0.541 | 0.596
K fixed | 1.12 | 1.84 | 1.01 | 1.44 | 1.22 | 0.514 | 0.964 | 1.08 | 0.953
L fixed | 0.764 | 0.561 | 0.897 | 0.75 | 0.973 | 0.789 | 0.731 | 0.698 | 0.712
M fixed | 1.33 | 0.634 | 0.985 | 0.746 | 1.14 | 1.3 | 0.821 | 0.879 | 0.725
N fixed | 0.977 | 1.07 | 1.06 | 1.06 | 1.23 | 1.08 | 1.54 | 1.17 | 1.01
P fixed | 0.32 | 0.67 | 1.06 | 1.7 | 0.95 | 1.87 | 1.51 | 1.56 | 1.28
Q fixed | 1.54 | 1.24 | 1.06 | 1.35 | 1.37 | 1.12 | 1.26 | 1.05 | 0.951
R fixed | 1.35 | 2.26 | 0.966 | 0.912 | 1.09 | 0.569 | 0.762 | 0.957 | 1
V fixed | 0.942 | 0.635 | 0.791 | 0.777 | 0.806 | 0.589 | 0.665 | 0.636 | 0.846
W fixed | 1.05 | 1.09 | 1.28 | 0.923 | 1.07 | 1.5 | 0.997 | 1.09 | 1.24
Y fixed | 0.978 | 1.39 | 1.16 | 0.832 | 1.15 | 1.47 | 1.02 | 0.843 | 0.884
pThr fixed | 0.578 | 0.503 | 0.623 | 0.634 | 0.63 | 0.706 | 0.849 | 0.914 | 0.992
pTyr fixed | 0.455 | 0.311 | 0.519 | 0.452 | 0.862 | 0.525 | 0.707 | 0.616 | 0.73

MAP4K3, construct: aa1-380 (from UniProt Q8IVH8)
relative phosphorylation
Conditions | at +1 | at +2 | at +3 | at +4 | at -1 | at -2 | at -3 | at -4 | at -5
A fixed | 0.464 | 0.792 | 0.671 | 0.932 | 0.978 | 1.09 | 0.815 | 0.964 | 1.07
D fixed | 0.179 | 0.667 | 0.375 | 0.655 | 0.611 | 0.522 | 0.553 | 0.851 | 0.835
E fixed | 0.151 | 0.643 | 0.296 | 0.592 | 0.437 | 0.406 | 0.569 | 0.894 | 0.687
F fixed | 1.09 | 0.464 | 0.536 | 0.71 | 0.692 | 1.16 | 0.778 | 0.991 | 0.922
G fixed | 0.613 | 0.996 | 0.846 | 1.12 | 1.93 | 1.43 | 1.51 | 1.39 | 1.32
H fixed | 0.606 | 1.12 | 1.04 | 1.07 | 1.21 | 1.34 | 1.13 | 1.04 | 1.07
I fixed | 1.8 | 0.357 | 0.432 | 0.733 | 0.279 | 0.676 | 0.556 | 0.696 | 0.772
K fixed | 0.642 | 2.68 | 2.32 | 1.93 | 1.66 | 0.987 | 2.27 | 1.34 | 1.49
L fixed | 3.72 | 0.602 | 0.549 | 0.722 | 0.859 | 0.655 | 0.602 | 0.748 | 0.637
M fixed | 2.73 | 0.664 | 0.51 | 0.9 | 1.05 | 0.687 | 0.651 | 0.869 | 0.862
N fixed | 0.632 | 1.11 | 0.868 | 1.05 | 1.54 | 1.16 | 1.07 | 0.867 | 1.01
P fixed | 0.418 | 1.16 | 0.942 | 1.11 | 0.741 | 0.854 | 1.08 | 1.13 | 1.11
Q fixed | 0.655 | 0.952 | 0.952 | 1.17 | 0.998 | 0.785 | 0.843 | 0.928 | 0.864
R fixed | 0.67 | 3.22 | 4.5 | 1.67 | 1.92 | 1.5 | 2.13 | 1.48 | 1.45
V fixed | 0.672 | 0.428 | 0.497 | 0.743 | 0.362 | 0.815 | 0.529 | 0.695 | 0.833
W fixed | 1.14 | 0.528 | 0.893 | 0.999 | 0.668 | 1.3 | 0.935 | 1.16 | 1.07
Y fixed | 0.821 | 0.615 | 0.772 | 0.885 | 1.06 | 1.63 | 0.978 | 0.968 | 1.01
pThr fixed | 0.928 | 0.749 | 0.717 | 0.614 | 0.437 | 0.985 | 1.11 | 1.13 | 1.32
pTyr fixed | 0.355 | 0.389 | 0.637 | 0.486 | 0.516 | 0.763 | 1.04 | 0.852 | 1.16

MAP4K5, construct: Full length (from UniProt Q9Y4K4)
relative phosphorylation
Conditions | at +1 | at +2 | at +3 | at +4 | at -1 | at -2 | at -3 | at -4 | at -5
A fixed | 0.585 | 0.999 | 0.641 | 0.969 | 0.963 | 1.36 | 0.963 | 1.03 | 1.3
D fixed | 0.17 | 0.718 | 0.375 | 0.726 | 0.63 | 0.491 | 0.59 | 0.756 | 0.739
E fixed | 0.173 | 0.581 | 0.319 | 0.67 | 0.455 | 0.368 | 0.553 | 0.812 | 0.721
F fixed | 1.1 | 0.535 | 0.704 | 0.783 | 0.704 | 1.07 | 0.744 | 0.995 | 0.974
G fixed | 0.585 | 1.04 | 0.891 | 1.21 | 1.79 | 1.43 | 1.37 | 1.33 | 1.42
H fixed | 0.605 | 1.13 | 1.23 | 1.14 | 1.3 | 1.41 | 1.21 | 1.09 | 1.02
I fixed | 1.89 | 0.373 | 0.468 | 0.709 | 0.294 | 0.645 | 0.528 | 0.684 | 0.66
K fixed | 0.599 | 2.46 | 1.81 | 1.8 | 1.43 | 0.905 | 2.01 | 1.25 | 1.3
L fixed | 3.52 | 0.673 | 0.672 | 0.796 | 0.816 | 0.636 | 0.628 | 0.76 | 0.607
M fixed | 2.8 | 0.797 | 0.688 | 0.88 | 1 | 0.773 | 0.697 | 0.853 | 0.819
N fixed | 0.506 | 1.02 | 0.973 | 1.04 | 1.43 | 1.18 | 1.13 | 0.933 | 0.943
P fixed | 0.32 | 1.13 | 1.14 | 1.12 | 1.2 | 1.07 | 0.999 | 1.24 | 1.37
Q fixed | 0.558 | 1.12 | 0.907 | 1.1 | 1.01 | 0.806 | 1.1 | 0.96 | 0.877
R fixed | 0.697 | 2.53 | 3.55 | 1.49 | 1.65 | 1.36 | 1.77 | 1.25 | 1.25
V fixed | 0.78 | 0.513 | 0.609 | 0.718 | 0.362 | 0.77 | 0.591 | 0.78 | 0.906
W fixed | 1.28 | 0.647 | 1.08 | 0.951 | 0.778 | 1.3 | 1.13 | 1.23 | 1.07
Y fixed | 0.832 | 0.738 | 0.94 | 0.9 | 1.19 | 1.43 | 0.989 | 1.05 | 1.02
pThr fixed | 0.61 | 0.623 | 0.7 | 0.522 | 0.433 | 0.776 | 0.874 | 0.936 | 1.02
pTyr fixed | 0.326 | 0.397 | 0.716 | 0.56 | 0.602 | 0.695 | 0.91 | 0.881 | 1.1

— the supplement of paper PMC9876800
